# Legend:
# [1] = target: T1, IL-12R (Homo sapiens, UniProt P42701); experiment: Steady state 125I-IL-12 binding to human cells (Scatchard); parameters: human cells that naturally express IL-12R; endogenous in cells; receptor-negative PBMC, MRC-5, HL-60; conditions: PHA-activated PBMCs, Kit-225 and Kit 225/K6 cells; third (low affinity) site
# [2] = target: T2, detergent solubilized IL-12R from Kit 225/K6 cells (Homo sapiens, UniProt P42701); experiment: 125I-IL-12 binding to detergent solubilized IL-12R immunoprecipitated by immobilized 2*4E6; conditions: proteins immunoprecipitated by immobilized 2*4E6 from solubilized K6 cell extracts; read-out: apparent affinity of 125I-IL-12, single site
# T2 construct: were solubilized with 8 mM CHAPS extraction buffer; endogenous in cells; host or cells: Kit 225/K6 cells, CHAPS extract
# Description: FIG. 8A: Kit 225/K6 cells (1.5×10^8 cells/ml) were solubilized with 8 mM CHAPS extraction buffer and the cell extract (0.2 ml) was immunoprecipitated for 16 hrs at 4° C. with mAb 2*4E6 immobilized on goat anti-mouse IgG coupled to agarose as discussed below. Following this incubation, the beads were pelleted, washed and resuspended in IP buffer containing ^125 I-IL-12 at concentrations ranging from 7 pM to […]. The IL-12R immobilized on the 2*4E6 coated beads was incubated with ^125 I-IL-12 for 2 hrs at RT and IL-12R bound radioactivity was determined in the presence of 50 nM unlabelled IL-12.
# To confirm that the antibodies identified by the immunoprecipitation assay were specific for IL-12R, an immunoprecipitation/soluble IL-12R binding assay was developed. […] Following this incubation, the beads were pelleted, washed twice with IP buffer and the bound radioactivity determined in a gamma counter. Nonspecific binding was determined by inclusion of 70 nM unlabeled human IL-12 in the assay. Solubilized IL-12R binding data were analyzed according to the method of Scatchard, (Assn. N.Y. Acad. Sci., 51, 660 (1949)) by using the nonlinear regression programs EBDA and Ligand as adapted for the IBM PC by McPherson, from Elsevier-BIOSOFT.
# [3] = system: IL-12 receptor; experiment: Steady state 125I-IL-12 binding to human cells (Scatchard)
# [4] = target: T3, human recombinant IL-12 receptor β subunit (Homo sapiens, UniProt P42701); experiment: Equilibrium binding of 125I-IL-12 and 125I-2*4E6 to recombinant IL-12R expressed in COS cells
# T3 construct: expressed in transfected cells; host or cells: COS / COS-7 cells
# Description: COS cells (4-5×10^7) were transfected by electroporation with 25 μg of plasmid DNA expressing recombinant human IL-12R (Chua, et al., J. Immunol., 153:128 (1994)) in a BioRad Gene Pulser (250 μF, 250 volts) according to the manufacturer's protocol. The cells were plated in a 600 cm^2 culture plate, harvested after 72 hours by scraping, washed and resuspended in binding buffer. Transfected cells (8×10^4) were incubated with increasing concentrations of ^125 I-labeled 2*4E6 or IL-12 at room temperature for 2 hrs. Cell bound radioactivity was separated from free ^125 I-labeled 2*4E6 or IL-12 as described above.
# [5] = target: T1, IL-12R; experiment: Inhibition of 125I-2*4E6 binding to cells by unlabeled competitor; parameters: endogenous in cells; host or cells: Kit 225/K6 cells; conditions: PHA-activated PBMCs (FIG. 6)
# Source text: The data are expressed as the amount of ^125 I-2*4E6 bound [CPM BOUND (Percent)] to the cells in the presence of the indicated concentrations of unlabeled antibody or IL-12 when compared with the total specific binding in the absence of unlabeled competitor.
substance,measurement,setting,value
IL-12: 75-kDa heterodimeric cytokine of disulfide-bonded 40-kDa and 35-kDa subunits,Kd,[1],2 to 6 nM
same,Kd,[2],0.188 nM
same,"IL-12 BINDING (KD, Sites/cell)",[3]; HL-60,none detectable
same,"IL-12 BINDING (KD, Sites/cell)",[3]; MRC-5,none detectable
same,"IL-12 BINDING (KD, Sites/cell)",[3]; RAJI cells,none detectable
same,Kd,"[3]; YT cells, 2 sites",0.109 nM
same,"IL-12 BINDING (KD, Sites/cell)",[3]; non-activated human PBMC,none detected
same,Kd,"[4]; rIL-12R β-expressing COS cells, read-out: apparent affinity of 125I-IL-12, single binding site",2 to 6 nM
same,125I-IL-12 sites/cell,[4]; rIL-12R-expressing COS cells,"approximately 150,000 sites/cell"
same,block of 125I-2*4E6 binding by unlabeled competitor,[5],does not block

# Source: patent US5853721A, “Antibody to interleukin-12 receptor” (Hoffmann-La Roche Inc., priority 1995, dated 1998)
